These results are taken from patent US20070026475A1.

A value given as a limit tells only on which side of the number the result lay.

This assay deals with 4G10 anti-phosphotyrosine monoclonal antibody (Upstate Biotechnology). As to the kind of experiment: fluorescence polarization competition; competitor of the fluorescent pp60c-src phosphopeptide.

For the substance “unphosphorylated peptide (same sequence as the pp60c-src C-terminal phosphoregulatory peptide) (from UniProt P12931 524-536)”, the total shift in polarization was < 10 mP.
